What all share (assay): FRET or BRET; FRET efficiency by flow cytometry in co-transfected HEK-293T cells 24 h post-transfection; donor mCerulean fusion, acceptor mEYFP fusion; Cer alone as negative control
In general terms: BRET reads energy transfer from a luciferase to a nearby fluorophore.

The target in test [1] is EYFP-Tsn (Drosophila melanogaster).
Test [2] concerns the target EYFP-Hsp26 (Drosophila melanogaster) (UniProt P02517).
The target in test [3] is EYFP-Pen (Drosophila melanogaster) (UniProt P52295).

Experimental findings from publication PMC9037272 are described below.

Sequence of UniProt P02517 (P02517 whole entry): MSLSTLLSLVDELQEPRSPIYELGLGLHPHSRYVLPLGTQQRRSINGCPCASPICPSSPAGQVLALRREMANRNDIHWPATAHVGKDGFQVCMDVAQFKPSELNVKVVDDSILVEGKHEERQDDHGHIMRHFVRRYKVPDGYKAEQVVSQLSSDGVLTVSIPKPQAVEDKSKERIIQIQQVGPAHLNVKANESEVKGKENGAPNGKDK
Sequence of UniProt P52295 (P52295 whole entry): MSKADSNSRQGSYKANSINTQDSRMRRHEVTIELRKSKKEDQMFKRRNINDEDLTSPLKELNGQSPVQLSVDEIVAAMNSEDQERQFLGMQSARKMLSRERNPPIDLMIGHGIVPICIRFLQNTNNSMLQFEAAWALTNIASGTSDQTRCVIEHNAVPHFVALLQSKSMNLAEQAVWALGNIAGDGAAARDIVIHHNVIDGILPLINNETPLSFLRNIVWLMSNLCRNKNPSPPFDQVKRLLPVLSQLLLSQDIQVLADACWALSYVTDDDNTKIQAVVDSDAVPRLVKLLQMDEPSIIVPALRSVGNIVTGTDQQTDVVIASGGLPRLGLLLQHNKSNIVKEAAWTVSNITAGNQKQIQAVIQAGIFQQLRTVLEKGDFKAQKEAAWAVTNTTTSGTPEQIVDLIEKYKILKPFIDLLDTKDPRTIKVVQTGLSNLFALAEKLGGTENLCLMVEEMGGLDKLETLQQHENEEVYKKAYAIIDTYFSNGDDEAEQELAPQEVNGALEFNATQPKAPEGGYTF

Turning to “Cer-NtFT4 (mCerulean fusion of NtFT4) (natural protein)”, the FRET efficiency in test [1] was 3.8%; in test [2], 13.8%; in test [3], 7.9%.
